According to patent US20050238685A1, “Method of binding a compound to a surface” (priority 2002, published 2005):
Read-outs that look alike come from different tables or passages of the source.

Assays:
[1] = class I: resisting 2% SDS at 100° C., class II: 60% ethanol; cited from earlier work
[2] = Esterase, lipase and trypsin on SC3-coated oil droplets, spectrophotometric substrate conversion; format: biochemical
Protocol: The sheets with and without immobilized enzyme were used in a chromogenic assay. A 1.5 ml cuvette was filled with 1 ml of a 5 mM 4-nitrophenyl acetate solution (esterase substrate), 5 mM Na-benzoyl-DL-arginine-p-nitroanilide (trypsin substrate), or 5 mM 1,2-di-O-decanoyl-rac-glycero-3-glutaric acid-resorufin labeled in the appropriate buffers. The cuvette was placed in the spectrophotometer and the reaction was started by placing the hydrophobin-coated sheets with or without immobilized enzyme in the cuvette parallel to the light beam. The light absorbance at the appropriate wavelength was followed in time. After one hour of incubation, the sheets were taken from the cuvette and the reaction in the cuvette was followed for an additional 24 hours. The sheets were washed with water and were transferred to a new cuvette with fresh substrate and the reaction was followed again. […] 400 μl of a 100 μg/ml solution of the mentioned enzymes was added to a 1 mm cuvette and a circular dichroism spectrum was recorded between 190 and 250 nm. To this solution, increasing concentrations of pure colloidal TEFLON™ or hydrophobin-coated TEFLON™ was added and changes were followed by recording CD-spectra. […] When TEFLON™ coated with hydrophobin is added to the enzyme solutions, the changes in CD signal (after correction for the hydrophobin signal) are less pronounced. […]

[3] = Circular dichroism of enzymes on binding to bare or hydrophobin-coated colloidal TEFLON; format: physicochemical; conditions: bare colloidal TEFLON
[4] = format: biochemical
Protocol: The sheets were removed from the hydrophobin solution and were immediately washed with large amounts of water to remove any unbound hydrophobin (5×50 ml water for five minutes); these coatings are referred to as the α-helix state. Part of the sheets were boiled in a 2% SDS solution for ten minutes, after which the sheets were extensively washed with water; these coatings are referred to as the β-sheet state. The colloidal TEFLON™ was collected by gentle centrifugation (two minutes, 2000 rpm), the supernatant was removed and the TEFLON™ pellet was resuspended in 2 ml pure water followed by centrifugation. The TEFLON™ pellet was washed five times with water to remove all unbound hydrophobin.
The bare and hydrophobin-coated sheets (α-helix state and β-sheet state) were incubated in 2 ml of enzyme solution in 3 ml glass vials at 25° C. for two hours. The used enzyme solutions were 100 μg/ml of 60 kD esterase (porcine liver), 40 kD lipase (wheat germ), or 25 kD trypsin (bovine pancreas). The sheets were washed extensively with water to remove any unbound enzyme.
The sheets with and without immobilized enzyme were used in a chromogenic assay. A 1.5 ml cuvette was filled with 1 ml of a 5 mM 4-nitrophenyl acetate solution (esterase substrate), 5 mM Na-benzoyl-DL-arginine-p-nitroanilide (trypsin substrate), or 5 mM 1,2-di-O-decanoyl-rac-glycero-3-glutaric acid-resorufin labeled in the appropriate buffers. The cuvette was placed in the spectrophotometer and the reaction was started by placing the hydrophobin-coated sheets with or without immobilized enzyme in the cuvette parallel to the light beam. The light absorbance at the appropriate wavelength was followed in time. After one hour of incubation, the sheets were taken from the cuvette and the reaction in the cuvette was followed for an additional 24 hours. The sheets were washed with water and were transferred to a new cuvette with fresh substrate and the reaction was followed again. […] 400 μl of a 100 μg/ml solution of the mentioned enzymes was added to a 1 mm cuvette and a circular dichroism spectrum was recorded between 190 and 250 nm. To this solution, increasing concentrations of pure colloidal TEFLON™ or hydrophobin-coated TEFLON™ was added and changes were followed by recording CD-spectra. […] When TEFLON™ coated with hydrophobin is added to the enzyme solutions, the changes in CD signal (after correction for the hydrophobin signal) are less pronounced. […] Furthermore, oil droplets were coated with hydrophobin. Coating of oil droplets was achieved by emulsifying 100 μl of oil (mineral oil or paraffin oil) in 3 ml of water by sonication and adding 3 ml of an aqueous solution of hydrophobin (200 μg/ml). Alternatively, the oil was directly emulsified in the hydrophobin solution and 3 ml was added. […]

[5] = Different enzymes immobilized via SC3 hydrophobin on TEFLON, spectrophotometry at 412 and 435 nm; format: biochemical; conditions: SC3-coated TEFLON; for function after storage: 4° C. in buffer solution
Protocol: The surface was first coated with SC3 hydrophobin by immersion in the protein aqueous solution (0.3 mg/mL) during approximately 30 minutes. The obtained modified surface was then immersed in an aqueous enzyme solution during approximately 30 minutes. After each step, the TEFLON™ surface was rinsed with an adequate buffer solution. Activity of the immobilized enzymes was followed by spectrophotometry at 412 and 435 nm after immersion of the functionalized surface in the corresponding substrate solution. The optical density of the solution increases after the immersion of the functionalized surface and stays constant after its removal. […] The functionalized TEFLON® was stored at 4° C. in an Eppendorf tube containing a buffer solution.
(Biocatalysts, Wales; final concentration 2.1 mg/mL), lipase from Candida cylindracea (Biocatalysts, Wales; final concentration 0.25 mg/mL), porcine liver esterase (SIGMA; 41 U/mg of solid, final concentration 2.4 mg/mL), bovine pancreas trypsin (SIGMA; 8,750 U/mg of solid).

[6] = at 50 μg ml^−1; cited from earlier work
[7] = cited from earlier work

B1: alkaline phosphatase: human placental alkaline phosphatase (Roche) (protein)
chain: IIPVEEENPDFWNREAAEALGAAKKLQPAQTAAKNLIIFLGDGMGVSTVTAARILKGQKKDKLGPEIPLAMDRFPYVALSKTYNVDKHVPDSGATATAYLCGVKGNFQTIGLSAAARFNQCNTTRGNEVISVMNRAKKAGKSVGVVTTTRVQHASPAGTYAHTVNRNWYSDADVPASARQEGCQDIATQLISNMDIDVILGGGRKYMFRMGTPDPEYPDDYSQGGTRLDGKNLVQEWLAKRQGARYVWNRTELMQASLDPSVTHLMGLFEPGDMKYEIHRDSTLDPSLMEMTEAALRLLSRNPRGFFLFVEGGRIDHGHHESRAYRALTETIMFDDAIERAGQLTSEEDTLSLVTADHSHVFSFGGYPLRGSSIFGLAPGKARDRKAYTVLLYGNGPGYVLKDGARPDVTESESGSPEYRQQSAVPLDEETHAGEDVAVFARGPQAHLVHGVQEQTFIAHVMAFAACLEPYTACDLAPPAGTTD
activity of enzyme attached to bare wells: not active

B2: cryparin: class II hydrophobin of Cryphonectria parasitica (protein, UniProt P52753 23-118, looked up)
Class II hydrophobin CRP: GGGGGGSGSGSGSGSGSGSGGGSTTYTACSSTLYSEAQCCATDVLGVADLDCETVPETPTSASSFESICATSGRDAKCCTIPLLGQALLCQDPVGL
solubility of assembled membranes [1]: readily dissociate in 60% ethanol and in 2% SDS

B3: trypsin: bovine pancreas trypsin, 25 kD (protein)
chain: IVGGYTCGANTVPYQVSLNSGYHFCGGSLINSQWVVSAAHCYKSGIQVRLGEDNINVVEGNEQFISASKSIVHPSYNSNTLNNDIMLIKLKSAASLNSRVASISLPTSCASAGTQCLISGWGNTKSSGTSYPDVLKCLKAPILSDSSCKSAYPGQITSNMFCAGYLEGGKDSCQGDSGGPVVCSGKLQGIVSWGSGCAQKNKPGVYTKVCNYVSWIKQTIASN
catalytic activity of immobilized enzyme [2]: still catalytically active
structural change in CD-spectra upon binding [3]: underwent structural changes
activity and stability of enzyme attached to hydrophobin-coated sheets [4]: active and stable for up to one month
activity of enzyme attached to bare sheets [4]: not active
state of immobilized enzymes (denaturation, desorption) [5]: not denatured and are not desorbed from the surface
function after storage [5]: still functional after several weeks

B4: esterase: porcine liver esterase, 60 kD (protein)
chain: GQPASPPVVDTAQGRVLGKYVSLEGLAQPVAVFLGVPFAKPPLGSLRFAPPQPAEPWSFVKNTTSYPPMCCQDPVVEQMTSDLFTNGKERLTLEFSEDCLYLNIYTPADLTKRGRLPVMVWIHGGGLVLGGAPMYDGVVLAAHENVVVVAIQYRLGIWGFFSTGDEHSRGNWGHLDQVAALHWVQENIANFGGDPGSVTIFGESAGGESVSVLVLSPLAKNLFHRAISESGVALTVALVRKDMKAAAKQIAVLAGCKTTTSAVFVHCLRQKSEDELLDLTLKMKFLTLDFHGDQRESHPFLPTVVDGVLLPKMPEEILAEKDFNTVPYIVGINKQEFGWLLPTMMGFPLSEGKLDQKTATSLLWKSYPIANIPEELTPVATDKYLGGTDDPVKKKDLFLDLMGDVVFGVPSVTVARQHRDAGAPTYMYEFQYRPSFSSDKKPKTVIGDHGDEIFSVFGFPLLKGDAPEEEVSLSKTVMKFWANFARSGNPNGEGLPHWPMYDQEEGYLQIGVNTQAAKRLKGEEVAFWNDLLSKEAAKKPPKIKHAEL
catalytic activity of immobilized enzyme [2]: still catalytically active
structural change in CD-spectra upon binding [3]: underwent structural changes
activity and stability of enzyme attached to hydrophobin-coated sheets [4]: active and stable for up to one month
activity of enzyme attached to bare sheets [4]: not active
state of immobilized enzymes (denaturation, desorption) [5]: not denatured and are not desorbed from the surface
function after storage [5]: still functional after several weeks

B5: cerato-ulmin: class II hydrophobin of Ophiostoma ulmi (protein, UniProt Q06153 26-100, looked up)
Class II hydrophobin CU: SDSYDPCTGLLQKSPQCCNTDILGVANLDCHGPPSVPTSPSQFQASCVADGGRSARCCTLSLLGLALVCTDPVGI
solubility of assembled membranes [1]: readily dissociate in 60% ethanol and in 2% SDS

B6: SC3: class I hydrophobin of Schizophyllum commune (protein)
chain: GGHPGTTTPPVTTTVTVTTPPSTTTIAAGGTCTTGSLSCCNQVQSASSSPVTALLGLLGIVLSDLNVLVGISCSPLTVIGVGGSGCSAQTVCCENTQFNGLINIGCTPINIL
maximal lowering of the water surface tension, from 72 to [6]: 24 mJ m^−2
water contact angle of coated TEFLON ([7]; TEFLON (110°) coated with hydrophobin): 48 °
water contact angle ([7]; hydrophilic side of the membrane): 36 °
water contact angle ([7]; hydrophobic side of the membrane): 110 °
